Target: HA-TrioGEFD2 (pMTHA-TrioGEFD2) (UniProt O75962)
Assay: cell-based or functional assay

Substance: GFP alone
- percentage of co-transfected PC12 cells with neurites after NGF: 16%

From patent publication US20060210973A1
